In patent US20140186344A1 (TRUSTEES OF BOSTON UNIVERSITY, published 2014):
Where a chain is given by its changes, count along the chain named. No end group written: not given here. *: point of attachment. 125I = [125I]*

How the values were obtained:
[1] = molecular target: T1, Dahl S Dear S44/M74 variant (rat Dual Endothelin-1/Angiotensin II Receptor) (rat (Dahl S/JRHsd), UniProt D3ZGZ6 1-127); experiment: saturation radioligand binding, Cos1 membranes; KH, high affinity binding site; the column head says nM but paragraph 132 gives this value in pM
T1 construct: It was assayed as membranes of transiently transfected Cos1 cells, and as rat kidney membranes on blots; also called Dahl S receptor; Cos1-S
T1 chain: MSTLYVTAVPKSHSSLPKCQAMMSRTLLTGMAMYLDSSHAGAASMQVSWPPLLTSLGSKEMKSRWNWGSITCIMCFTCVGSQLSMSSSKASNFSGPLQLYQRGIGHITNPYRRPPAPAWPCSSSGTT
Method: (§1) Binding of [¹²⁵I]Tyr⁴-angiotensin II and [¹²⁵I]Tyr¹³-endothelin-1 to COS-1 membranes was performed by a rapid filtration method (32, 50). Briefly, [¹²⁵I]Tyr⁴-angiotensin II (0.25˜6.5 nM) or [¹²⁵I]Tyr¹³-endothelin-1 (0.045˜1.46 nM) was incubated with membranes (100 μg) for 20 min at 37° C. in 100 μl buffer A (5 mM MgCl₂, 0.2 mM EDTA, 10 mg/ml BSA, 10 mM Hepes, pH7.4). Binding reactions were terminated by the addition of 1 ml ice-cold buffer A and immediately filtered through a Whatman GF/C filter (presoaked overnight at 4° C. in 10 mg/ml BSA) and subsequently washed with 15 ml ice-cold buffer A. Specific binding was determined as the difference between the total radioactivity bound to membranes and the radioactivity bound to blanks containing 1 μM AngII or 1 μM ET-1. The dissociation constant (Kd) and maximum ligand-binding sites (Bₘₐₓ) were determined using Hill plot analysis (55). Hill coefficient values (h) were calculated from the relationship ln [B/(Bₘₐₓ−B)]=h ln [free Radioligand]−ln Kd. […] The data were best fit by two affinity states determined by Scatchard plot analysis; KH and KL designate the Kd for high- and low-affinity states of the receptor, respectively (44). Most results are expressed as the mean±SE (standard error) from three to five independent experiments.

[2] = molecular target: T2, Dahl R Dear S44P/M74T variant (rat Dual Endothelin-1/Angiotensin II Receptor) (rat (Dahl R/JRHsd), UniProt D3ZGZ6 1-127); experiment: as above
T2 construct: It was assayed as membranes of transfected Cos1 cells and as kidney membranes on blots; also called Dahl R receptor; Cos1-R
T2 chain: T1 chain with S44P, M74T
Method: as §1

mouse Dear (Dual …) = molecular target: T3, mouse Dear (Dual Endothelin-1/Angiotensin II Receptor) (mouse, UniProt Q2QKR2 1-127); experiment: 125I-ET-1 binding to membranes of Cos-1 cells expressing mouse Dear
T3 construct: Endogenous protein in mouse kidney membranes and embryos was used for the antibody work; also called mouse receptor polypeptide; mouse Dear polypeptide
T3 sequence: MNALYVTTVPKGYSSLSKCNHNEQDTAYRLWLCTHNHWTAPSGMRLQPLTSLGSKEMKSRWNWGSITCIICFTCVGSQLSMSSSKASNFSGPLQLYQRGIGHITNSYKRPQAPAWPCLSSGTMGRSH

[3] = molecular target: T1, Dahl S Dear S44/M74 variant (rat Dual …); experiment: saturation radioligand binding, Cos1 membranes; KL, low affinity binding site; the column head says nM, and the unit is doubtful
Method: as §1

[4] = molecular target: T2, Dahl R Dear S44P/M74T variant (rat Dual …); experiment: as above
Method: as §1

[5] = molecular target: T1, Dahl S Dear S44/M74 variant (rat Dual …); experiment: saturation radioligand binding, Cos1 membranes; comparison of KH
Method: as §1

- Kd [1]: 0.00442 nM
- Kd [2]: 0.012 nM
- binding result (mouse Dear (Dual …)): binds
- Kd [3]: 0.45 nM
- Kd [4]: 0.836 nM
- fold increased affinity compared to the Dahl R Dear S44P/M74T variant [5]: 3 fold
B1: [125I]Tyr13-endothelin-1 (peptide, UniProt P05305 53-73, looked up)
peptide: CSCSSLMDKECVY(125I)FCHLDIIW
modifications: ends and bridges not checked
notes: mature; Radiolabelled ligand; also called ET-1
